Reference: paper PMC9482650, “Quantitative fragmentomics allow affinity mapping of interactomes” (Nature Communications, 2022)
Values belong to the binder of their own block, whether it stands above or below them.

Key:
Experiment in all cases: holdup assay
Set-up in all cases: key: below the threshold = too weak to quantify, mostly under pKd 3.1 to 4
[1] = biological target: DLG4_3, P78352
[2] = biological target: T1, TIAM2, Q8IVF5
T1 sequence (Q8IVF5 885-986, limits assumed, looked up): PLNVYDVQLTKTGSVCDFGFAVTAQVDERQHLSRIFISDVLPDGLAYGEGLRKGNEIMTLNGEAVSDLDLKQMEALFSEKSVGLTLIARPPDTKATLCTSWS

[3] = biological target: T2, APBA3_1, O96018
T2 sequence (O96018 389-490, limits assumed, looked up): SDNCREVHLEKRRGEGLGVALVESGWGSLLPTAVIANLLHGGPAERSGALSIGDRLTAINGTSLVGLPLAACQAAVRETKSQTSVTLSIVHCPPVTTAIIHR

[4] = biological target: T3, MPDZ_12, O75970
T3 sequence (O75970 1857-1958, limits assumed, looked up): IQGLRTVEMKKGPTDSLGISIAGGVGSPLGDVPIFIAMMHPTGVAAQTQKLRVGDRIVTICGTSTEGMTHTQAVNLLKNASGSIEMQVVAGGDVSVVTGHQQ

[5] = biological target: T4, SNTA1, Q13424
T4 sequence (Q13424 82-180, limits assumed, looked up): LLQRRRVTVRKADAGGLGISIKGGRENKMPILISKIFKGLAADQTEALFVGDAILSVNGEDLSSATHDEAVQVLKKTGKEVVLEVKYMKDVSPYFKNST

[6] = biological target: T5, GRIP1_7, Q9Y3R0
T5 sequence (Q9Y3R0 999-1096, limits assumed, looked up): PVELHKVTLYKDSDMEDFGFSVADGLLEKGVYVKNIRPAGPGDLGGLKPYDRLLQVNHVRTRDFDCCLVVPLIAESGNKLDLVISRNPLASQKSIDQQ

[7] = biological target: GRID2IP_1, A4D2P6
[8] = biological target: DLG2_2, Q15700
[9] = biological target: MAST1, Q9Y2H9
[10] = biological target: GORASP1, Q9BQQ3
[11] = biological target: SCRIB_1, Q14160
[12] = biological target: T6, CARD11, Q9BXL7
T6 sequence (Q9BXL7 662-765, limits assumed, looked up): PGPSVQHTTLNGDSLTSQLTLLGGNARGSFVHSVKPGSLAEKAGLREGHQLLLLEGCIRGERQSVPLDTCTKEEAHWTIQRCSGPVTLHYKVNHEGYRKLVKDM

[13] = biological target: AHNAK1, Q09666
[14] = biological target: GRID2IP_2, A4D2P6
[15] = biological target: GRIP2_7, Q9C0E4
[16] = biological target: FRMPD2_2, Q68DX3
[17] = biological target: GRIP2_5, Q9C0E4
[18] = biological target: T7, LIN7C, Q9NUP9
T7 sequence (Q9NUP9 88-185, limits assumed, looked up): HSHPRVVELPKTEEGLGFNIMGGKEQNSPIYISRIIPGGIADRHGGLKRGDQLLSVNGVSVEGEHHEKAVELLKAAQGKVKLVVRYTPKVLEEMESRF

[19] = biological target: T8, SYNJ2BP, P57105
T8 sequence (P57105 8-110, limits assumed, looked up): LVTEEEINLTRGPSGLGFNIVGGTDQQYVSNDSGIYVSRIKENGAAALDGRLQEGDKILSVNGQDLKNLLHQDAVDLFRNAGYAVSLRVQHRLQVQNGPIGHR

[20] = biological target: DLG1_3, Q12959
[21] = biological target: T9, HTRA3, P83110
T9 sequence (P83110 354-453, limits assumed, looked up): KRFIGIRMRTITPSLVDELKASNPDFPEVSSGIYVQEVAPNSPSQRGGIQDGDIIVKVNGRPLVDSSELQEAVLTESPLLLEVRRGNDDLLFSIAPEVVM

[22] = biological target: GORASP2, Q9H8Y8
[23] = biological target: HTRA2, O43464
[24] = biological target: MAGI2_2, Q86UL8
[25] = biological target: T10, SNTG2, Q9NY99
T10 sequence (Q9NY99 68-166, limits assumed, looked up): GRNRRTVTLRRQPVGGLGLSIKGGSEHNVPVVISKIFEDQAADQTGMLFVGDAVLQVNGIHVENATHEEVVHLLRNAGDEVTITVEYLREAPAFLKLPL

[26] = biological target: MAGI2_5, Q86UL8
[27] = biological target: LDB3, O75112
[28] = biological target: NHERF2_2, Q15599
[29] = plain residues with an end cap or a label only (N-terminal biotin on a linker: ttds)
[30] = plain residues with an end cap or a label only (N-terminal biotin on a linker: ahx)

DLG2_2, Q15700, sequence (Q15700 189-283): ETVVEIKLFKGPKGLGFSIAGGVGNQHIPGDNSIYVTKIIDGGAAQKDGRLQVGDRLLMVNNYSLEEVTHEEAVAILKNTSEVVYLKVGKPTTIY
DLG1_3, Q12959, sequence (Q12959 457-571): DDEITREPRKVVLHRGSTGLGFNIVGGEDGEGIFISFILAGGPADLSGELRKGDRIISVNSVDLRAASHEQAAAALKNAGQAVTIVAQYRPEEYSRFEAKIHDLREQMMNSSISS
GRID2IP_2, A4D2P6, sequence (A4D2P6 272-370): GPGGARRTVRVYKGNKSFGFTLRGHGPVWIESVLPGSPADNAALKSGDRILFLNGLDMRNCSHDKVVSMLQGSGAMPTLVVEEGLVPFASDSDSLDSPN
GRID2IP_1, A4D2P6, sequence (A4D2P6 1-87): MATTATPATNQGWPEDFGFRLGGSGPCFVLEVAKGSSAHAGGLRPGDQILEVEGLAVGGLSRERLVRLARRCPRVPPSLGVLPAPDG
MAST1, Q9Y2H9, sequence (Q9Y2H9 962-1065): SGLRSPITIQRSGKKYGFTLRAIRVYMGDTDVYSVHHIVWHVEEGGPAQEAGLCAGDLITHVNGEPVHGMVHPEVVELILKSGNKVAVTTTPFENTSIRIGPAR
FRMPD2_2, Q68DX3, sequence (Q68DX3 944-1038): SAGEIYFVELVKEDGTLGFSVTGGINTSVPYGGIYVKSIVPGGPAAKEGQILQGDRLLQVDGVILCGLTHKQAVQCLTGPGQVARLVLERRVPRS
DLG4_3, P78352, sequence (P78352 306-403): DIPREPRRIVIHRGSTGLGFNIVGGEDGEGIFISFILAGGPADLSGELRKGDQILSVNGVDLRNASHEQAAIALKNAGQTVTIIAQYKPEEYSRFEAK
GRIP2_5, Q9C0E4, sequence (Q9C0E4 544-642): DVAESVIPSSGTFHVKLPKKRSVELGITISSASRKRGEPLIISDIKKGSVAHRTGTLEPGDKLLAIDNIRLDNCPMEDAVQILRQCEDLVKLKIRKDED
AHNAK1, Q09666, sequence (Q09666 4-100): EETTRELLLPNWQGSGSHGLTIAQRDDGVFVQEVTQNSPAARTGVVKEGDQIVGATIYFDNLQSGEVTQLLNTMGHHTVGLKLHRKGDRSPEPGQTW
NHERF2_2, Q15599, sequence (Q15599 142-238): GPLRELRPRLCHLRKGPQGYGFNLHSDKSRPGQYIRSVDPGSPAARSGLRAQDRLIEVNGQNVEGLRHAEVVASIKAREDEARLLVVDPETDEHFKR
GORASP1, Q9BQQ3, sequence (Q9BQQ3 1-208): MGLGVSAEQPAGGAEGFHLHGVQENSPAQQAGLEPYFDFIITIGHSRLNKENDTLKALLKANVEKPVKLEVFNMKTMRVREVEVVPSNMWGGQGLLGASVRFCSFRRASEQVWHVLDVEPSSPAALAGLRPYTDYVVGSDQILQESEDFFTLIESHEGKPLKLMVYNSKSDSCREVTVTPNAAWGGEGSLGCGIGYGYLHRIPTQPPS
MAGI2_2, Q86UL8, sequence (Q86UL8 410-522): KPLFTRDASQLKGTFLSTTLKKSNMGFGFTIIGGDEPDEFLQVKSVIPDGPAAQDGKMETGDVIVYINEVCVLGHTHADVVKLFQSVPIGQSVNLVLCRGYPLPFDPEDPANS
HTRA2, O43464, sequence (O43464 355-458): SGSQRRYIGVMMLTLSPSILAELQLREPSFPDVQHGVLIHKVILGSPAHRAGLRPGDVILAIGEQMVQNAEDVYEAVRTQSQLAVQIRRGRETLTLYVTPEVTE
MAGI2_5, Q86UL8, sequence (Q86UL8 915-1017): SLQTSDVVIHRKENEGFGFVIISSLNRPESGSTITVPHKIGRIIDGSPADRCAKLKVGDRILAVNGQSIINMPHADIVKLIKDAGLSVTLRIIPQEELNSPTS
GRIP2_7, Q9C0E4, sequence (Q9C0E4 934-1023): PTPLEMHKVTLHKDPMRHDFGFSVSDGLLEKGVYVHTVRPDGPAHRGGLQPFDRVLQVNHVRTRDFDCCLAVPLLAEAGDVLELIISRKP
SCRIB_1, Q14160, sequence (Q14160 718-814): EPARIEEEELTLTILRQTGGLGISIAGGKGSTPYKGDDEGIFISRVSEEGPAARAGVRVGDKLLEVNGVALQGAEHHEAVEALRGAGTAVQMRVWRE
LDB3, O75112, sequence (O75112 1-94): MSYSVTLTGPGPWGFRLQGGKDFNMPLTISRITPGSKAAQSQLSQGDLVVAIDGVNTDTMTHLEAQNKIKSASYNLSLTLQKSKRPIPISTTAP

Binder: TEEEVQDTRL [CFTR, P13569]
pKd [1, 29]: below the threshold | pKd [2, 29]: below the threshold | pKd [3, 29]: below the threshold | pKd [4, 29]: below the threshold | pKd [5, 29]: 3.79 | pKd [6, 29]: 3.74 | pKd [7, 29]: below the threshold | pKd [8, 29]: below the threshold | pKd [9, 29]: 4.77 | pKd [10, 29]: below the threshold | pKd [11, 29]: 5.42 | pKd [12, 29]: below the threshold | pKd [13, 29]: below the threshold | pKd [14, 29]: below the threshold | pKd [15, 29]: below the threshold | pKd [16, 29]: below the threshold | pKd [17, 29]: below the threshold | pKd [18, 29]: below the threshold | pKd [19, 29]: below the threshold | pKd [20, 29]: below the threshold | pKd [21, 29]: below the threshold | pKd [22, 29]: below the threshold | pKd [23, 29]: below the threshold | pKd [24, 29]: below the threshold | pKd [25, 29]: 4.37 | pKd [26, 29]: below the threshold | pKd [27, 29]: below the threshold

Binder: CLDTSRETDL [KCNA5, P22460]
pKd [1, 29]: below the threshold | pKd [2, 29]: below the threshold | pKd [3, 29]: below the threshold | pKd [4, 29]: below the threshold | pKd [5, 29]: 5.34 | pKd [6, 29]: below the threshold | pKd [7, 29]: below the threshold | pKd [8, 29]: 4.19 | pKd [9, 29]: 4.91 | pKd [10, 29]: below the threshold | pKd [11, 29]: 4.76 | pKd [28, 29]: 4.49 | pKd [12, 29]: below the threshold | pKd [13, 29]: below the threshold | pKd [14, 29]: 3.7 | pKd [15, 29]: below the threshold | pKd [16, 29]: below the threshold | pKd [17, 29]: below the threshold | pKd [18, 29]: 3.74 | pKd [19, 29]: 4.2 | pKd [20, 29]: 3.57 | pKd [21, 29]: below the threshold | pKd [22, 29]: 3.58 | pKd [23, 29]: below the threshold | pKd [24, 29]: below the threshold | pKd [25, 29]: 4.45 | pKd [26, 29]: below the threshold | pKd [27, 29]: below the threshold

Continued, values first:

pKd [1, 30]: below the threshold | pKd [3, 30]: below the threshold | pKd [4, 30]: below the threshold | pKd [5, 30]: below the threshold | pKd [6, 30]: below the threshold | pKd [7, 30]: below the threshold | pKd [10, 30]: below the threshold | pKd [11, 30]: below the threshold | pKd [28, 30]: below the threshold | pKd [12, 30]: below the threshold | pKd [13, 30]: below the threshold | pKd [15, 30]: below the threshold | pKd [16, 30]: below the threshold | pKd [17, 30]: below the threshold | pKd [18, 30]: below the threshold | pKd [20, 30]: below the threshold | pKd [21, 30]: below the threshold | pKd [22, 30]: below the threshold | pKd [23, 30]: below the threshold | pKd [24, 30]: 4.11 | pKd [25, 30]: below the threshold | pKd [27, 30]: below the threshold
Binder: LCKSHAFSHV [PDLIM7, Q9NR12;Q9NR12-1]

pKd [1, 30]: below the threshold | pKd [2, 30]: 4.11 | pKd [3, 30]: below the threshold | pKd [4, 30]: below the threshold | pKd [5, 30]: below the threshold | pKd [6, 30]: 4.09 | pKd [7, 30]: below the threshold | pKd [8, 30]: below the threshold | pKd [9, 30]: below the threshold | pKd [10, 30]: 3.8 | pKd [11, 30]: below the threshold | pKd [28, 30]: below the threshold | pKd [12, 30]: below the threshold | pKd [13, 30]: below the threshold | pKd [14, 30]: below the threshold | pKd [15, 30]: 4.55 | pKd [16, 30]: below the threshold | pKd [17, 30]: below the threshold | pKd [18, 30]: below the threshold | pKd [19, 30]: below the threshold | pKd [20, 30]: below the threshold | pKd [21, 30]: 4.2 | pKd [22, 30]: 4.33 | pKd [23, 30]: below the threshold | pKd [24, 30]: 3.67 | pKd [25, 30]: below the threshold | pKd [26, 30]: 3.57 | pKd [27, 30]: below the threshold
Binder: KKNKDKEYYV [NRXN1, Q9ULB1]

pKd [1, 30]: below the threshold | pKd [2, 30]: below the threshold | pKd [3, 30]: below the threshold | pKd [4, 30]: below the threshold | pKd [5, 30]: 3.61 | pKd [6, 30]: below the threshold | pKd [7, 30]: below the threshold | pKd [8, 30]: below the threshold | pKd [9, 30]: 4.22 | pKd [10, 30]: below the threshold | pKd [11, 30]: below the threshold | pKd [28, 30]: 3.68 | pKd [12, 30]: below the threshold | pKd [13, 30]: below the threshold | pKd [14, 30]: 4.28 | pKd [15, 30]: below the threshold | pKd [16, 30]: 5.03 | pKd [17, 30]: below the threshold | pKd [18, 30]: below the threshold | pKd [19, 30]: 3.49 | pKd [20, 30]: below the threshold | pKd [21, 30]: below the threshold | pKd [22, 30]: below the threshold | pKd [23, 30]: below the threshold | pKd [24, 30]: below the threshold | pKd [25, 30]: below the threshold | pKd [26, 30]: 4.46 | pKd [27, 30]: below the threshold
Binder: EDEDEQVSAV [RAPGEF2, Q9Y4G8]
